This passage reports Km, kcat and kcat/Km results from paper PMC6450558.

Substrate in the data set: CC(=O)N[C@H]1[C@H]([C@H](O)[C@H](O)CO)O[C@](OP(=O)(O)OC[C@H]2O[C@@H](n3ccc(N)nc3=O)[C@H](O)[C@@H]2O)(C(=O)O)C[C@@H]1O
As to the kind of experiment: sialyltransferase kinetics, donor varied. It counts as biochemical, Homo sapiens. The settings on record: acceptor LacNAc-butyl (11), fixed concentration.

Broadly, the Km is the concentration of substrate that gives half-maximal velocity. As a reminder, the kcat is the maximal rate divided by the concentration of active sites. For orientation: kcat/Km means the turnover number divided by the Michaelis constant.

B1: human ST3Gal-IV (Homo sapiens) (protein)
chain: MVSKSRWKLLAMLALVLVVMVWYSISREDRYIELFYFPIPEKKEPCLQGEAESKASKLFGNYSRDQPIFLRLEDYFWVKTPSAYELPYGTKGSEDLLLRVLAITSSSIPKNIQSLRCRRCVVVGNGHRLRNSSLGDAINKYDVVIRLNNAPVAGYEGDVGSKTTMRLFYPESAHFDPKVENNPDTLLVLVAFKAMDFHWIETILSDKKRVRKGFWKQPPLIWDVNPKQIRILNPFFMEIAADKLLSLPMQQPRKIKQKPTTGLLAITLALHLCDLVHIAGFGYPDAYNKKQTIHYYEQITLKSMAGSGHNVSQEALAIKRMLEMGAIKNLTSF
For B1, the Km came to 300 ± 66 µM, the kcat worked out at 0.0233 ± 0.00167 s⁻¹ and the kcat/Km came out at 78.3 ± 25 M⁻¹ s⁻¹.

B2: human ST6Gal-I (Homo sapiens) (protein)
chain: MIHTNLKKKFSCCVLVFLLFAVICVWKEKKKGSYYDSFKLQTKEFQVLKSLGKLAMGSDSQSVSSSSTQDPHRGRQTLGSLRGLAKAKPEASFQVWNKDSSSKNLIPRLQKIWKNYLSMNKYKVSYKGPGPGIKFSAEALRCHLRDHVNVSMVEVTDFPFNTSEWEGYLPKESIRTKAGPWGRCAVVSSAGSLKSSQLGREIDDHDAVLRFNGAPTANFQQDVGTKTTIRLMNSQLVTTEKRFLKDSLYNEGILIVWDPSVYHSDIPKWYQNPDYNFFNNYKTYRKLHPNQPFYILKPQMPWELWDILQEISPEEIQPNPPSSGMLGIIIMMTLCDQVDIYEFLPSKRKTDVCYYYQKFFDSACTMGAYHPLLYEKNLVKHLNQGTDEDIYLLGKATLPGFRTIHC
For the protein B2, the Km amounted to 119 ± 16 µM, the kcat was 0.183 ± 0.00667 s⁻¹ and the kcat/Km worked out at 1530 ± 417 M⁻¹ s⁻¹.
